Changes are numbered by the printed parent chain.
B1: Ab No. 25 (antibody, V domains shown)
VH: EVQLVESGGGLVQPGRSLRLSCAASGFTFDDYAMHWVRQAPGKGLEWVSGISWSSGSIGYADSVKGRFTISRDNAKNSLYLQMNSLRAEDTAVYYCAKAWGRVGRANYYYYGLDVWGQGTTVTVSS
VL: EIVLTQSPATLSLSPGERATLSCRASQSVSSYLAWYQQKPGQAPRLLIYDASNRATGIPARFSGSGSGTDFTLTISSLEPEDFAVYYCQQYSNFPPITFGGGTKVEIK
notes: IgG format
B2: Ab No. 26 (antibody, V domains shown)
VH: B1 VH with K65E
VL: EIVLTQSPATLSLSPGERATLSCRASQSVSSYLAWYQQKPGQAPRLLIYDASNRATGIPARFSGSGSGTDFTLTISSLEPEDFAVYYCQQYANHLTFGGGTKVEIK
notes: IgG format
B3: Ab No. 1 (antibody, V domains shown)
VH: QVQLVQSGAEVKKPGASVKVSCKASGYTFTSYAMHWVRQAPGQRLEWMGWINAGTGATKYSQKFQGRVTITRDTSASTAYMELSSLRSEDTAVYYCAKDIGSGFYELSLDYWGQGTLVTVSS
VL: DIQMTQSPSSVSASVGDRVTITCRASQGISSWLAWYQQKPGKAPKLLIYAASNLQSGVPSRFSGSGSGTDFTLTISSLQPEDFATYYCQQIISLPLTFGGGTKVEIK
notes: IgG format
B4: Ab No. 11 (antibody, V domains shown)
VH: QVQLVQSGAEVKKPGSSVKVSCKASGGTFSSYAISWVRQAPGQGLEWMGGIIPISGTANYAQKFQGRVTITADESTSTAYMELSSLRSEDTAVYYCARDRGLGFPHLVWGQGTLVTVSS
VL: B3 VL with N53S, I91G, I92N, L96I
notes: IgG format
B5: Ab No. 13 (antibody, V domains shown)
VH: QVQLVQSGAEVKKPGSSVKVSCKASGGTFSSYAISWVRQAPGQGLEWMGGIIPISGTANYAQKFQGRVTITADESTSTAYMELSSLRSEDTAVYYCARGGIALSAGPSNIWGQGTLVTVSS
VL: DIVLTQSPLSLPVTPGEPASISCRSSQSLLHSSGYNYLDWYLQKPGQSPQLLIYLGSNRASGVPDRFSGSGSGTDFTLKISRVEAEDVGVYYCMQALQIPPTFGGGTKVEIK
notes: IgG format
B6: Ab No. 15 (antibody, V domains shown)
VH: B5 VH with G100S, I101L, A102S, S104V, A105S, G106Y, P107G, S108P, N109A, I110V
VL: EIVMTQSPATLSVSPGERATLSCRASQSVSSNLAWYQQKPGQAPRLLIYGASTRATGIPARFSGSGSGTEFTLTISSLQSEDFAVYYCQQYITHPPTFGGGTKVEIK
notes: IgG format
B7: Ab No. 10 (antibody, V domains shown)
VH: QVQLVQSGAEVKKPGSSVKVSCKASGGTFSSYAISWVRQAPGQGLEWMGGIIPISGTANYAQKFQGRVTITADESTSTAYMELSSLRSEDTAVYYCARDKGGLGRGGRYWGQGTLVTVSS
VL: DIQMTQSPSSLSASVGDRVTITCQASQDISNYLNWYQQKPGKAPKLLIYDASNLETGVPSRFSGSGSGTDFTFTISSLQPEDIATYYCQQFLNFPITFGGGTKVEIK
notes: IgG format
B8: Ab No. 18 (antibody, V domains shown)
VH: B7 VH with D99P, K100E, G101K, L103F, G104T, R105S, G107L, R108V, Y109D
VL: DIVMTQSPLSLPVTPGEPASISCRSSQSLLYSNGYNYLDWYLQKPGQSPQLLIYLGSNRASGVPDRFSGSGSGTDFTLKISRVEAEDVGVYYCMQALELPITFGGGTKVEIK
notes: IgG format
B9: Ab No. 22 (antibody, V domains shown)
VH: B7 VH with A97V, D99A, K100R, G102I, L103V, R105P, G106D, G107E, R108G, Y109P
VL: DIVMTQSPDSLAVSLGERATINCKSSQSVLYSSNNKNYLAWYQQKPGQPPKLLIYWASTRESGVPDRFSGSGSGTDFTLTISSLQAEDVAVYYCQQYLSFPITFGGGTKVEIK
notes: IgG format
B10: Ab No. 16 (antibody, V domains shown)
VH: B7 VH with D99L, K100Y, G101H, G102I, L103G, G104T, R105T, G107Y, R108P
VL: DIQMTQSPSSLSASVGDRVTITCRASQSISSYLNWYQQKPGKAPKLLIYGASSLQSGVPSRFSGSGSGTDFTLTISSLQPEDFATYYCQQSYYDPTFGGGTKVEIK
notes: IgG format
B11: Ab No. 19 (antibody, V domains shown)
VH: B7 VH with D99Q, K100Y, G102T, L103F, G104A, R105F, G106Y, G107S, R108D
VL: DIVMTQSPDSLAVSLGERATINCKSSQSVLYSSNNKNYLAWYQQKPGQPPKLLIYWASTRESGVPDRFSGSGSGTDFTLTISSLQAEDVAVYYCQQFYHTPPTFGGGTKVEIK
notes: IgG format
B12: Ab No. 23 (antibody, V domains shown)
VH: B7 VH with A97V, D99A, K100R, G102I, L103V, R105P, G106D, G107E, R108G, Y109P
VL: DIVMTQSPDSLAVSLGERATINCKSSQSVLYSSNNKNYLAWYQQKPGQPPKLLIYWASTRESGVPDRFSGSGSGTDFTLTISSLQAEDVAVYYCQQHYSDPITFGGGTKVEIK
notes: IgG format
B13: Ab No. 14 (antibody, V domains shown)
VH: QVQLVQSGAEVKKPGSSVKVSCKASGGTFSSYAISWVRQAPGQGLEWMGGIIPISGTANYAQKFQGRVTITADESTSTAYMELSSLRSEDTAVYYCARGSLSLAAETPLWGRGTLVTVSS
VL: EIVLTQSPATLSLSPGERATLSCRASQSVSSYLAWYQQKPGQAPRLLIYDASKRATGIPARFSGSGSGTDFTLTISSLEPEDFAVYYCQQYLNFPITFGGGTKVEIK
notes: IgG format
B14: Ab No. 2 (antibody, V domains shown)
VH: QVQLVQSGAEVKKPGASVKVSCKASGYTFTSYAMHWVRQAPGQRLEWMGWINAGTGATKYSQKFQGRVTITRDTSASTAYMELSSLRSEDTAVYYCARDLVHSYGLLPGWGQGTLVTVSS
VL: B13 VL with K53N, L92S, F94W, I96F
notes: IgG format
B15: Ab No. 17 (antibody, V domains shown)
VH: QVQLVQSGAEVKKPGSSVKVSCKASGGTFSSYAISWVRQAPGQGLEWMGGVIPISGTANYAQKFQGRVTITADESTSTAYMELSSLRSEDTAVYYCARLYHLALAPAWGQGTLVTVSS
VL: B13 VL with L4M, K53N, Y91A, L92V, F94L
notes: IgG format
B16: Ab No. 21 (antibody, V domains shown)
VH: B4 VH with A97T, R100L, L102F, F104A, P105I, H106R, L107D, V108T
VL: B13 VL with Y36F, K53N, Y91S, F94L
notes: IgG format
B17: Ab No. 20 (antibody, V domains shown)
VH: B4 VH with A97T, R100L, L102F, F104A, P105I, H106R, L107D, V108T
VL: B13 VL with K53N, Y91S, L92N, F94L
notes: IgG format
B18: Ab No. 12 (antibody, V domains shown)
VH: QVQLVQSGAEVKKPGSSVKVSCKASGGTFSSYAISWVRQAPGQGLEWMGGIIPISGTANYAQKFQGRVTITADESTSTAYMELSSLRSEDTAVYYCARGGIALHRSSSGLLWGRGTLVTVSS
VL: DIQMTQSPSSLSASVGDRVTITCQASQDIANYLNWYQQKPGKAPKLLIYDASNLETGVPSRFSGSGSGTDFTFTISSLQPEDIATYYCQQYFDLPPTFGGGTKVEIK
notes: IgG format
B19: Ab No. 24 (antibody, V domains shown)
VH: QITLKESGPTLVKPTQTLTLTCTFSGFSLSTSGVGVGWIRQPPGKALEWLALIYWNDDKRYSPSLKSRLTITKDTSKNQVVLTMTNMDPVDTAVYYCARSFDQGIAVWGPFDYWGQGTLVTVSS
VL: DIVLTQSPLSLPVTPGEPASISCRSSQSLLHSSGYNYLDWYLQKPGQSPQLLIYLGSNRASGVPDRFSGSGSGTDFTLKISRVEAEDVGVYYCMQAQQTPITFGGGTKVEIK
notes: IgG format
B20: Ab No. 27 (antibody, V domains shown)
VH: EVQLLESGGGLVQPGGSLRLSCAASGFTFSNYAMSWVRQAPGKGLEWVSAISGSGGSTYYADSVKGRFTISRDNSKNTLYLQMDSLRAEDTAVYYCASFGDIAVAGAGFVNWGQGTLVTVSS
VL: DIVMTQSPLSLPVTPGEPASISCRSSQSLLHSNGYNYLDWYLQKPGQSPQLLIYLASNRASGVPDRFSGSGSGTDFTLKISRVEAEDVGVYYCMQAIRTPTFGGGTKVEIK
notes: IgG format

Each binder was assayed against T1, human CD28 (human, UniProt P10747 19-152, limits assumed) (assay: selection from yeast-presented synthetic human antibody libraries).
T1 construct: also called Cluster of Differentiation 28; Tp44

Binder	binding result
B1	binds
B2	binds
B3	binds
B4	binds
B5	binds
B6	binds
B7	binds
B8	binds
B9	binds
B10	binds
B11	binds
B12	binds
B13	binds
B14	binds
B15	binds
B16	binds
B17	binds
B18	binds
B19	binds
B20	binds

Reference: patent EP4713368A1 (dated 2026)
